The text below walks through data of article PMC9105436.

The experiment concerns the target coconut protein (coconut). Description: ITC; Malvern MicroCal PEAQ-ITC; cell 200 uL with the low-concentration solution, syringe with the high-concentration solution (not told which held which); 13 injections of 3 uL; both solutions dialysed; fit with two sets of constants (N1/N2, K1, K2).

Take gelatin: the K1 is 4.33 µM, the K2 worked out at 136 µM, the N1 amounted to 2.69 and the N2 came out at 1.51. Moreover, the dH1 was -2.75 kcal/mol and the dH2 was -1.52 kcal/mol.
